Experimental data taken from article PMC12426278.

Key:
[1] = target: huCD147mt-Strep (glycosylation-deficient soluble extracellular domain of human CD147, Strep-tag II) (human); assay: BLI; Octet Red96e; […] (20 μg/mL) […]; 25 mM HEPES, 150 mM NaCl pH 7.5, 0.04% Tween-20; global 1:1 model
[2] = target: huCD147-Strep (soluble extracellular domain of human CD147, Strep-tag II) (human); assay: as above

Substance | Kd [1] | Kd [2]
[change] (soluble extracellular domain of H9N2 HA) (domain or fragment) | 200 nM | 310 nM
[change] (soluble extracellular domain of H1N1 HA) (from UniProt P03452 18-528) (domain or fragment) | 500 nM | 700 nM
